*1 amine or outer side, *2 acyl side, *3 side chain or, on linkers, in order; H or OH if unused. Side-chain parts run from the residue outwards. The star is where a group is joined. C18 diacid = O=C(O)CCCCCCCCCCCCCCCCC(=O)*; γGlu = O=C(O)[C@H](CCC(=O)[*:2])N[*:1]
T1: human calcitonin receptor (a) (human, UniProt P30988 25-474)
T1 sequence (looked up): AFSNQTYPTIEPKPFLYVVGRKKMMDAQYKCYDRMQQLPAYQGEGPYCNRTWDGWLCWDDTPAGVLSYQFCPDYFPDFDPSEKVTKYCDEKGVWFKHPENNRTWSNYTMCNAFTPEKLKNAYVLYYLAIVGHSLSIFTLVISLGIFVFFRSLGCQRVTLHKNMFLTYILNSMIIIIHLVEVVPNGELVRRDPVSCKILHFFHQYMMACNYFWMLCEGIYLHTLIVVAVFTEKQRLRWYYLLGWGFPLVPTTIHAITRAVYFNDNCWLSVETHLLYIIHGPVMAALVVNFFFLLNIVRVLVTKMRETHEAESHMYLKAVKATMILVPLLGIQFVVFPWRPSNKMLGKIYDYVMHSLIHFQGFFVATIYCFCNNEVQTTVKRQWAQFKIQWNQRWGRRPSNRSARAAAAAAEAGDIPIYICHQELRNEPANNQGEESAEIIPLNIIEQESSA

T2: human amylin-3(a) receptor (human, UniProt P30988 25-474; O60896 24-148)
T2 sequence (looked up) 1: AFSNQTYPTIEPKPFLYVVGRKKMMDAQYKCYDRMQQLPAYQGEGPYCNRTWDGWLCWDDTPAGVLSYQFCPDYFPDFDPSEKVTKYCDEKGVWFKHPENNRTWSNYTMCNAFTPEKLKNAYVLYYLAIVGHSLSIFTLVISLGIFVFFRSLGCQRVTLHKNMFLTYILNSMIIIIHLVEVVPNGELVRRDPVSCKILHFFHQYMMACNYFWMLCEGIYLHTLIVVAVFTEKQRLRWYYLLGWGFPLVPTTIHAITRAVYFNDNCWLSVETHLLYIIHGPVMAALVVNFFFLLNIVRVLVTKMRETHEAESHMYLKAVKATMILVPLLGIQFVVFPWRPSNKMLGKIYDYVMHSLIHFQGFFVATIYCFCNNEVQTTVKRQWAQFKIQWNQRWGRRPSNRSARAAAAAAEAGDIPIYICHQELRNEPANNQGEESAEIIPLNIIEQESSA
T2 sequence (looked up) 2: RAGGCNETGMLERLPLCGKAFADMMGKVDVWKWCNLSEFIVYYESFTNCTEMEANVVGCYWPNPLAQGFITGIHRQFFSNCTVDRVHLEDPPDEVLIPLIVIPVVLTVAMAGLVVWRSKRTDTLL


Tests used:
[1] = target: T1, human calcitonin receptor (a); test: cell-based or functional assay
[2] = target: T2, human amylin-3(a) receptor; test: cell-based or functional assay

hCalcR potency, EC50 (pM); CRE-luciferase reporter in BHK cells [1] [pM]	hAmyR3 potency, EC50 (pM); CRE-luciferase reporter in BHK cells [2] [pM]	Binder
1.16	1.16	Ac-ASHLSTAQTARLAEFLHHSSDNFGK([γGlu-C18 diacid])ILPPTDVGSNTP-NH2 (SMILES CC[C@H](C)[C@H](NC(=O)[C@H](CCCCNC(=O)CC[C@H](NC(=O)CCCCCCCCCCCCCCCCC(=O)O)C(=O)O)NC(=O)CNC(=O)[C@H](Cc1ccccc1)NC(=O)[C@H](CC(N)=O)NC(=O)[C@H](CC(=O)O)NC(=O)[C@H](CO)NC(=O)[C@H](CO)NC(=O)[C@H](Cc1c[nH]cn1)NC(=O)[C@H](Cc1c[nH]cn1)NC(=O)[C@H](CC(C)C)NC(=O)[C@H](Cc1ccccc1)NC(=O)[C@H](CCC(=O)O)NC(=O)[C@H](C)NC(=O)[C@H](CC(C)C)NC(=O)[C@H](CCCNC(=N)N)NC(=O)[C@H](C)NC(=O)[C@@H](NC(=O)[C@H](CCC(N)=O)NC(=O)[C@H](C)NC(=O)[C@@H](NC(=O)[C@H](CO)NC(=O)[C@H](CC(C)C)NC(=O)[C@H](Cc1c[nH]cn1)NC(=O)[C@H](CO)NC(=O)[C@H](C)NC(C)=O)[C@@H](C)O)[C@@H](C)O)C(=O)N[C@@H](CC(C)C)C(=O)N1CCC[C@H]1C(=O)N1CCC[C@H]1C(=O)N[C@H](C(=O)N[C@@H](CC(=O)O)C(=O)N[C@H](C(=O)NCC(=O)N[C@@H](CO)C(=O)N[C@@H](CC(N)=O)C(=O)N[C@H](C(=O)N1CCC[C@H]1C(N)=O)[C@@H](C)O)C(C)C)[C@@H](C)O)
1.76	1.06	{C18 diacid-γGlu}-ASHLSTAQTARLAEFLHHFGPILPPTDVGSETP-NH2 (SMILES CC[C@H](C)[C@H](NC(=O)[C@@H]1CCCN1C(=O)CNC(=O)[C@H](Cc1ccccc1)NC(=O)[C@H](Cc1c[nH]cn1)NC(=O)[C@H](Cc1c[nH]cn1)NC(=O)[C@H](CC(C)C)NC(=O)[C@H](Cc1ccccc1)NC(=O)[C@H](CCC(=O)O)NC(=O)[C@H](C)NC(=O)[C@H](CC(C)C)NC(=O)[C@H](CCCNC(=N)N)NC(=O)[C@H](C)NC(=O)[C@@H](NC(=O)[C@H](CCC(N)=O)NC(=O)[C@H](C)NC(=O)[C@@H](NC(=O)[C@H](CO)NC(=O)[C@H](CC(C)C)NC(=O)[C@H](Cc1c[nH]cn1)NC(=O)[C@H](CO)NC(=O)[C@H](C)NC(=O)CC[C@H](NC(=O)CCCCCCCCCCCCCCCCC(=O)O)C(=O)O)[C@@H](C)O)[C@@H](C)O)C(=O)N[C@@H](CC(C)C)C(=O)N1CCC[C@H]1C(=O)N1CCC[C@H]1C(=O)N[C@H](C(=O)N[C@@H](CC(=O)O)C(=O)N[C@H](C(=O)NCC(=O)N[C@@H](CO)C(=O)N[C@@H](CCC(=O)O)C(=O)N[C@H](C(=O)N1CCC[C@H]1C(N)=O)[C@@H](C)O)C(C)C)[C@@H](C)O)
2.78	2.11	{C18 diacid-γGlu}-ASHLSTAQTARLAEFLHHFGPILPPTDVGSETY-NH2 (SMILES CC[C@H](C)[C@H](NC(=O)[C@@H]1CCCN1C(=O)CNC(=O)[C@H](Cc1ccccc1)NC(=O)[C@H](Cc1c[nH]cn1)NC(=O)[C@H](Cc1c[nH]cn1)NC(=O)[C@H](CC(C)C)NC(=O)[C@H](Cc1ccccc1)NC(=O)[C@H](CCC(=O)O)NC(=O)[C@H](C)NC(=O)[C@H](CC(C)C)NC(=O)[C@H](CCCNC(=N)N)NC(=O)[C@H](C)NC(=O)[C@@H](NC(=O)[C@H](CCC(N)=O)NC(=O)[C@H](C)NC(=O)[C@@H](NC(=O)[C@H](CO)NC(=O)[C@H](CC(C)C)NC(=O)[C@H](Cc1c[nH]cn1)NC(=O)[C@H](CO)NC(=O)[C@H](C)NC(=O)CC[C@H](NC(=O)CCCCCCCCCCCCCCCCC(=O)O)C(=O)O)[C@@H](C)O)[C@@H](C)O)C(=O)N[C@@H](CC(C)C)C(=O)N1CCC[C@H]1C(=O)N1CCC[C@H]1C(=O)N[C@H](C(=O)N[C@@H](CC(=O)O)C(=O)N[C@H](C(=O)NCC(=O)N[C@@H](CO)C(=O)N[C@@H](CCC(=O)O)C(=O)N[C@H](C(=O)N[C@@H](Cc1ccc(O)cc1)C(N)=O)[C@@H](C)O)C(C)C)[C@@H](C)O)
